Data published in patent US6680174.

Molecular target: mouse GDF-9 receptor on granulosa cells (mouse)
Test: cell-based or functional assay

B1: recombinant mouse GDF-9, cleaved, mature, glycosylated form (21 kD) (ligand, UniProt Q07105 307-441, looked up)
chain: GQKAIRSEAKGPLLTASFNLSEYFKQFLFPQNECELHDFRLSFSQLKWDNWIVAPHRYNPRYCKGDCPRAVRHRYGSPVHTMVQNIIYEKLDPSVPRPSCVPGKYSPLSVLTIEPDGSIAYKEYEDMIATRCTCR
modifications: one N-linked oligosaccharide (single N-linked glycosylation site, Asn325)
Work on B1 yielded a COX-2 mRNA (RT-PCR) after 24 hours with 100 ng/ml GDF-9 of 50 fold, an HAS2 expression (RT-PCR) after 5 hours, 50 ng/ml and 100 ng/ml mGDF-9 against 10 ng/ml of 5 to 10 fold and an HAS2 expression (RT-PCR), granulosa cells cultured ~20 hrs with mGDF-9 media, against CHO control of 10 fold. For the same binder, the HAS2 mRNA (Northern blot, 4.8 kb and 3.2 kb forms) after 5 hours with 50 ng/ml GDF-9 was 9.7 fold, the LH receptor mRNA (RT-PCR) with 10 ng/ml FSH, control-treated against cells treated with 100 ng/ml GDF-9 was 30 fold and the cumulus expansion of oocytectomized complexes cultured 18 hours with 100 ng/ml GDF-9 (out of 44 complexes) was 40. For the same binder, the fold decrease in HAS2 expression without GDF-9 (0-24 hours) against the peak level induced by 100 ng/ml GDF-9 was 10 fold, the uPA RT-PCR band intensity at 5 hours, 100 ng/ml GDF-9, normalized to HPRT was 15 % of control and the uPA RT-PCR band intensity at 9 hours, 100 ng/ml GDF-9, normalized to HPRT was 9 % of control. The uPA mRNA (Northern blot) with 50 ng/ml GDF-9 was 40 % of control.
